Data reported in article PMC2695464, “On the mechanism of autoinhibition of the RhoA-specific nucleotide exchange factor PDZRhoGEF” (BMC Structural Biology, 2009).

Biological target: human RhoA^F25N (residues 1–181) (human, UniProt P61586 1-181, F25N)
Test: cell-based or functional assay

Chain of human RhoA^F25N (residues 1–181) (P61586 1-181 F25N): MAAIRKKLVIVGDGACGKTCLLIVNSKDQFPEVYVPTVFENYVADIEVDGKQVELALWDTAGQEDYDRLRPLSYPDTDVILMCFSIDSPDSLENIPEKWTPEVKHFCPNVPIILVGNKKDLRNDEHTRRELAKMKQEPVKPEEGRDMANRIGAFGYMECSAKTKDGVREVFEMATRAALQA

B1: PRG^4R: PRG^672–1081 with D706R, E708R, E710R, D712R (domain or fragment, human, UniProt O15085 672-1081, looked up)
chain: TPKMGRRSIESPSLGFCTDTLLPHLLEDDLGQLSRLRPRPRAQNWQHTVGKDVVAGLTQREIDRQEVINELFVTEASHLRTLRVLDLIFYQRMKKENLMPREELARLFPNLPELIEIHNSWCEAMKKLREEGPIIKEISDLMLARFDGPAREELQQVAAQFCSYQSIALELIKTKQRKESRFQLFMQEAESHPQCRRLQLRDLIISEMQRLTKYPLLLESIIKHTEGGTSEHEKLCRARDQCREILKYVNEAVKQTENRHRLEGYQKRLDATALERASNPLAAEFKSLDLTTRKMIHEGPLTWRISKDKTLDLHVLLLEDLLVLLQKQDEKLLLKCHSKTAVGSSDSKQTFSPVLKLNAVLIRSVATDKRAFFIICTSKLGPPQIYELVALTSSDKNTWMELLEEAVRNA
catalytic activity in the nucleotide exchange assay on RhoA (mant-GTP fluorescence): 3.3 fold over the isolated DH-PH tandem
